The labels stand for the following.
B1: AnkB C-terminal ankyrin domain (residues 54-168) (domain or fragment)
chain: HIKRELWGNLMVAARSNNLEEVKKILKKGIDPTQTNSYHLNRTPLLAAIEGKAYQTANYLWRKYTFDPNFKDNYGDSPISLLKKQLANPAFKDKEKKQIRALIRGMQEEKIAQSK

The target of data set [1] is B1. Nature of the data set: NMR titration.
Data set [2] concerns the molecule itself. Nature of the data set: crystal structure.

One may read the Kd as the free concentration of one partner at which half of the binding sites on the other are occupied at equilibrium, for simple one-to-one binding. High values mean weaker binding, low ones tighter binding. In turn, QEEKI [QEEKI pentapeptide derived from the AnkB C-terminus] returned a Kd in data set [1] of more than 8 mM.

As to B1, in data set [2], the binding result is on record as “binds”.

These data come from publication PMC6528793 (Structure (London, England : 1993), 2017).
